Measurements: IntAct's records for PubMed 25535969

B1: Lysine-specific demethylase 3A (Homo sapiens), Q9Y4C1 (parent)
chain: MVLTLGESWPVLVGRRFLSLSAADGSDGSHDSWDVERVAEWPWLSGTIRAVSHTDVTKKDLKVCVEFDGESWRKRRWIEVYSLLRRAFLVEHNLVLAERKSPEISERIVQWPAITYKPLLDKAGLGSITSVRFLGDQQRVFLSKDLLKPIQDVNSLRLSLTDNQIVSKEFQALIVKHLDESHLLKGDKNLVGSEVKIYSLDPSTQWFSATVINGNPASKTLQVNCEEIPALKIVDPSLIHVEVVHDNLVTCGNSARIGAVKRKSSENNGTLVSKQAKSCSEASPSMCPVQSVPTTVFKEILLGCTAATPPSKDPRQQSTPQAANSPPNLGAKIPQGCHKQSLPEEISSCLNTKSEALRTKPDVCKAGLLSKSSQIGTGDLKILTEPKGSCTQPKTNTDQENRLESVPQALTGLPKECLPTKASSKAELEIANPPELQKHLEHAPSPSDVSNAPEVKAGVNSDSPNNCSGKKVEPSALACRSQNLKESSVKVDNESCCSRSNNKIQNAPSRKSVLTDPAKLKKLQQSGEAFVQDDSCVNIVAQLPKCRECRLDSLRKDKEQQKDSPVFCRFFHFRRLQFNKHGVLRVEGFLTPNKYDNEAIGLWLPLTKNVVGIDLDTAKYILANIGDHFCQMVISEKEAMSTIEPHRQVAWKRAVKGVREMCDVCDTTIFNLHWVCPRCGFGVCVDCYRMKRKNCQQGAAYKTFSWLKCVKSQIHEPENLMPTQIIPGKALYDVGDIVHSVRAKWGIKANCPCSNRQFKLFSKPASKEDLKQTSLAGEKPTLGAVLQQNPSVLEPAAVGGEAASKPAGSMKPACPASTSPLNWLADLTSGNVNKENKEKQPTMPILKNEIKCLPPLPPLSKSSTVLHTFNSTILTPVSNNNSGFLRNLLNSSTGKTENGLKNTPKILDDIFASLVQNKTTSDLSKRPQGLTIKPSILGFDTPHYWLCDNRLLCLQDPNNKSNWNVFRECWKQGQPVMVSGVHHKLNSELWKPESFRKEFGEQEVDLVNCRTNEIITGATVGDFWDGFEDVPNRLKNEKEPMVLKLKDWPPGEDFRDMMPSRFDDLMANIPLPEYTRRDGKLNLASRLPNYFVRPDLGPKMYNAYGLITPEDRKYGTTNLHLDVSDAANVMVYVGIPKGQCEQEEEVLKTIQDGDSDELTIKRFIEGKEKPGALWHIYAAKDTEKIREFLKKVSEEQGQENPADHDPIHDQSWYLDRSLRKRLHQEYGVQGWAIVQFLGDVVFIPAGAPHQVHNLYSCIKVAEDFVSPEHVKHCFWLTQEFRYLSQTHTNHEDKLQVKNVIYHAVKDAVAMLKASESSFGKP

Variants of: B1
Conditions: with STAT1, P42224-1
Chain of STAT1, P42224-1 (P42224 whole entry): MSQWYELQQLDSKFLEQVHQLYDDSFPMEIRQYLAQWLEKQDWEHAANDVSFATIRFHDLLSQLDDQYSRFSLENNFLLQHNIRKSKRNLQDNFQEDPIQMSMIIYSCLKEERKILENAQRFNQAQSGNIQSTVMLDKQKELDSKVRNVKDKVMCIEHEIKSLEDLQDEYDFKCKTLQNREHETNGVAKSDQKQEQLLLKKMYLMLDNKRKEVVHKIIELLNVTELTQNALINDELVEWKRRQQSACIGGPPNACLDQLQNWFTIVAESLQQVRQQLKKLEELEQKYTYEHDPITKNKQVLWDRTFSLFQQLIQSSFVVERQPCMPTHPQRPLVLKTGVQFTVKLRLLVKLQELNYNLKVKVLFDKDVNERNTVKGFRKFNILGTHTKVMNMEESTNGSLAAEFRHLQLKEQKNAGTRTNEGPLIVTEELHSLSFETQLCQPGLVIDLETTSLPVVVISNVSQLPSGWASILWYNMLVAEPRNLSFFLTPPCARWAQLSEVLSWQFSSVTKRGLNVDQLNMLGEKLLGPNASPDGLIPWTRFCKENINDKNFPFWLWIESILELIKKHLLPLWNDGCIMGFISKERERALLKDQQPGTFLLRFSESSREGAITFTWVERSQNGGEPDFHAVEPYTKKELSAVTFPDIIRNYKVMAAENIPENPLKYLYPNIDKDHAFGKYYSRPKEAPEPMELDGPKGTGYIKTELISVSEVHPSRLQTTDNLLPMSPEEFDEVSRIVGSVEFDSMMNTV

Row | Variant | effect of a mutation on the interaction
1 | S264A | disrupting interaction strength
